In patent publication US20220267422A1:

Target: doppel (Prnd) recombinant protein immobilized on the SPR sensor chip
Test: SPR, BIAcore T100, recombinant protein immobilized on chip

Sequence of doppel (Prnd) recombinant protein immobilized on the SPR sensor chip (Q9UKY0 26-152): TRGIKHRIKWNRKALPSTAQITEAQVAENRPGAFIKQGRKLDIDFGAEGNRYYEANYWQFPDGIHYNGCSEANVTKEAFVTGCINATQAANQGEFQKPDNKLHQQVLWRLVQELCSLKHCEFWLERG

B1: Human monoclonal antibody 3D1 (antibody, human IgG1, kappa, V domains shown)
VH: EVQLVESGGGLVQPGGSLRLSCAASGFTFSDYAMSWVRQAPGKGLEWVSRISGSGGTKYYADSVKGRFTISRDNSKNTLYLQMNSLRAEDTAVYYCAKHQVYWALDVWGQGTLVTVSS
VL: DIQMTQSPSSLSASVGDRVTITCRASQSISNWLNWYQQKPGKAPKLLIYATSSLQSGVPSRFSGSGSGTDFTLTISSLQPEDFATYYCQQSYSYPWTFGQGTKVEIKR
How did the Kd turn out when B1 was run?
Its Kd is 0.308 nM.
